To fix the notation:
B1: EHEE_rd2_0191 (parent)
chain: TTEYTFTDDEEARRAIEELKKRGLTFRYEKHGTTWRVRVD
B2: HEEH_KT_rd6_0007 (parent)
chain: SIEEEIKKAEEAKEKGKTFIHGDFVATTEELLDELLKRLRKKL

In the first series the parent is B1. Briefly: folding stability dG (cDNA display proteolysis); higher = more stable. As to conditions: PBS, room temperature.
As to TSEYTFTDDEEARRAIEELKKRGLTFRYEKHGTTWRVRVD, the “folding stability dG” value came out at 1.68 kcal/mol.
On the same count and under the same terms, to TMEYTFTDDEEARRAIEELKKRGLTFRYEKHGTTWRVRVD belongs 2.2 kcal/mol; to TFEYTFTDDEEARRAIEELKKRGLTFRYEKHGTTWRVRVD, 2.33 kcal/mol.
Same read-out and setting: with TKEYTFTDDEEARRAIEELKKRGLTFRYEKHGTTWRVRVD the figure was 2.01 kcal/mol.
On the same count and under the same terms, with TEEYTFTDDEEARRAIEELKKRGLTFRYEKHGTTWRVRVD the figure was 1.76 kcal/mol; with TYEYTFTDDEEARRAIEELKKRGLTFRYEKHGTTWRVRVD, 2.41 kcal/mol; with TLEYTFTDDEEARRAIEELKKRGLTFRYEKHGTTWRVRVD, 2.3 kcal/mol.
TWEYTFTDDEEARRAIEELKKRGLTFRYEKHGTTWRVRVD: the “folding stability dG” value came to 2.62 kcal/mol.
As to TGEYTFTDDEEARRAIEELKKRGLTFRYEKHGTTWRVRVD, the “folding stability dG” value worked out at 1.42 kcal/mol.
Still for that read-out and setting: to TPEYTFTDDEEARRAIEELKKRGLTFRYEKHGTTWRVRVD belongs 0.931 kcal/mol; to TCEYTFTDDEEARRAIEELKKRGLTFRYEKHGTTWRVRVD, 2.9 kcal/mol; to THEYTFTDDEEARRAIEELKKRGLTFRYEKHGTTWRVRVD, 2.08 kcal/mol.
On the same count and under the same terms, with TAEYTFTDDEEARRAIEELKKRGLTFRYEKHGTTWRVRVD the figure was 1.82 kcal/mol; with TVEYTFTDDEEARRAIEELKKRGLTFRYEKHGTTWRVRVD, 2.4 kcal/mol; with TIEYTFTDDEEARRAIEELKKRGLTFRYEKHGTTWRVRVD, 2.5 kcal/mol.
Still for that read-out and setting: with TNEYTFTDDEEARRAIEELKKRGLTFRYEKHGTTWRVRVD the figure was 1.58 kcal/mol; with TREYTFTDDEEARRAIEELKKRGLTFRYEKHGTTWRVRVD, 2.27 kcal/mol.
Take TQEYTFTDDEEARRAIEELKKRGLTFRYEKHGTTWRVRVD: the “folding stability dG” value came to 2 kcal/mol.
On the same count and under the same terms, to TDEYTFTDDEEARRAIEELKKRGLTFRYEKHGTTWRVRVD belongs 1.35 kcal/mol.
Same read-out and setting: to TTIYTFTDDEEARRAIEELKKRGLTFRYEKHGTTWRVRVD belongs 2.52 kcal/mol.
Regarding TTHYTFTDDEEARRAIEELKKRGLTFRYEKHGTTWRVRVD, the “folding stability dG” value came to 1.73 kcal/mol.
Same read-out and setting: with TTGYTFTDDEEARRAIEELKKRGLTFRYEKHGTTWRVRVD the figure was 0.724 kcal/mol; with TTDYTFTDDEEARRAIEELKKRGLTFRYEKHGTTWRVRVD, 1.58 kcal/mol; with TTFYTFTDDEEARRAIEELKKRGLTFRYEKHGTTWRVRVD, 2.44 kcal/mol.
With TTCYTFTDDEEARRAIEELKKRGLTFRYEKHGTTWRVRVD, the “folding stability dG” value was determined as 2.81 kcal/mol.
The same measure, in the same setting: with TTAYTFTDDEEARRAIEELKKRGLTFRYEKHGTTWRVRVD the figure was 1.12 kcal/mol.
On the same count and under the same terms, to KTEYTFTDDEEARRAIEELKKRGLTFRYEKHGTTWRVRVD belongs 1.78 kcal/mol; to QTEYTFTDDEEARRAIEELKKRGLTFRYEKHGTTWRVRVD, 2.04 kcal/mol.
For YTEYTFTDDEEARRAIEELKKRGLTFRYEKHGTTWRVRVD, the “folding stability dG” value was 2.93 kcal/mol.
The same measure, in the same setting: to ETEYTFTDDEEARRAIEELKKRGLTFRYEKHGTTWRVRVD belongs 1.93 kcal/mol; to WTEYTFTDDEEARRAIEELKKRGLTFRYEKHGTTWRVRVD, 3.2 kcal/mol.
On the same count and under the same terms, with PTEYTFTDDEEARRAIEELKKRGLTFRYEKHGTTWRVRVD the figure was 2.15 kcal/mol; with HTEYTFTDDEEARRAIEELKKRGLTFRYEKHGTTWRVRVD, 2.1 kcal/mol; with ITEYTFTDDEEARRAIEELKKRGLTFRYEKHGTTWRVRVD, 2.44 kcal/mol.
On the same count and under the same terms, with ATEYTFTDDEEARRAIEELKKRGLTFRYEKHGTTWRVRVD the figure was 2.06 kcal/mol.
For the variant LTEYTFTDDEEARRAIEELKKRGLTFRYEKHGTTWRVRVD, the “folding stability dG” value was determined as 2 kcal/mol.
Same read-out and setting: to MTEYTFTDDEEARRAIEELKKRGLTFRYEKHGTTWRVRVD belongs 2.21 kcal/mol; to RTEYTFTDDEEARRAIEELKKRGLTFRYEKHGTTWRVRVD, 1.87 kcal/mol; to NTEYTFTDDEEARRAIEELKKRGLTFRYEKHGTTWRVRVD, 1.62 kcal/mol.
On the same count and under the same terms, with DTEYTFTDDEEARRAIEELKKRGLTFRYEKHGTTWRVRVD the figure was 1.75 kcal/mol; with VTEYTFTDDEEARRAIEELKKRGLTFRYEKHGTTWRVRVD, 2.44 kcal/mol; with GTEYTFTDDEEARRAIEELKKRGLTFRYEKHGTTWRVRVD, 1.95 kcal/mol.
Same read-out and setting: to FTEYTFTDDEEARRAIEELKKRGLTFRYEKHGTTWRVRVD belongs 2.69 kcal/mol; to STEYTFTDDEEARRAIEELKKRGLTFRYEKHGTTWRVRVD, 2.05 kcal/mol.

The variants in a further series derive from B2. The series is described as above. The conditions noted are these: PBS, room temperature.
Turning to SIEEEIKKAEEAKEKGKTFIHGDFVATTEELLDELLKRLCKKL, the “folding stability dG” value is 1.31 kcal/mol.
Same read-out and setting: to SIEEEIKKAEEAKEKGKTFIHGDFVATTEELLDELLKRLDKKL belongs -0.199 kcal/mol.
On the same count and under the same terms, to SIEEEIKKAEEAKEKGKTFIHGDFVATTEELLDELLKRLFKKL belongs 1.1 kcal/mol; to SIEEEIKKAEEAKEKGKTFIHGDFVATTEELLDELLKRLIKKL, 0.776 kcal/mol.
On the same count and under the same terms, with SIEEEIKKAEEAKEKGKTFIHGDFVATTEELLDELLKRLEKKL the figure was -0.182 kcal/mol; with SIEEEIKKAEEAKEKGKTFIHGDFVATTEELLDELLKRLHKKL, 0.662 kcal/mol; with SIEEEIKKAEEAKEKGKTFIHGDFVATTEELLDELLKRLMKKL, 0.877 kcal/mol.
In the case of SIEEEIKKAEEAKEKGKTFIHGDFVATTEELLDELLKRLNKKL, the “folding stability dG” value was 0.359 kcal/mol.
For the variant SIEEEIKKAEEAKEKGKTFIHGDFVATTEELLDELLKRLKKKL, the “folding stability dG” value is 0.773 kcal/mol.
Same read-out and setting: to SIEEEIKKAEEAKEKGKTFIHGDFVATTEELLDELLKRLLKKL belongs 1.02 kcal/mol; to SIEEEIKKAEEAKEKGKTFIHGDFVATTEELLDELLKRLTKKL, 0.465 kcal/mol.
Still for that read-out and setting: to SIEEEIKKAEEAKEKGKTFIHGDFVATTEELLDELLKRLSKKL belongs 0.38 kcal/mol; to SIEEEIKKAEEAKEKGKTFIHGDFVATTEELLDELLKRLPKKL, -0.336 kcal/mol; to SIEEEIKKAEEAKEKGKTFIHGDFVATTEELLDELLKRLAKKL, 0.53 kcal/mol.
As for SIEEEIKKAEEAKEKGKTFIHGDFVATTEELLDELLKRLYKKL, the “folding stability dG” value turned out to be 1.69 kcal/mol.
Same read-out and setting: with SIEEEIKKAEEAKEKGKTFIHGDFVATTEELLDELLKRLQKKL the figure was 0.495 kcal/mol.

The record behind these values is the MegaScale stability set (Tsuboyama et al. 2023).
